In publication PMC9482650, “Quantitative fragmentomics allow affinity mapping of interactomes” (Nature Communications, 2022):
Blank lines part the entries; values can stand above or below the binder they belong to.

Tests used:
Experiment in all cases: holdup assay
Parameters in all cases: key: below the threshold = too weak to quantify, mostly under pKd 3.1 to 4
Inadl_8, Q8NI35 = biological target: Inadl_8, Q8NI35
DFNB31_3, Q9P202 = biological target: T1, DFNB31_3, Q9P202
T1 sequence (Q9P202 811-907, limits assumed, looked up): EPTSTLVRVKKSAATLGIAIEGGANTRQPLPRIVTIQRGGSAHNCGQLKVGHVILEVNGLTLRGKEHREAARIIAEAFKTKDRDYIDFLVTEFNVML

PDZRN4_1, Q6ZMN7 = biological target: PDZRN4_1, Q6ZMN7
TJP1_2, Q07157 = biological target: TJP1_2, Q07157
MAGI1_2, Q96QZ7 = biological target: MAGI1_2, Q96QZ7
SHANK1, Q9Y566 = biological target: T2, SHANK1, Q9Y566
T2 sequence (Q9Y566 658-767, limits assumed, looked up): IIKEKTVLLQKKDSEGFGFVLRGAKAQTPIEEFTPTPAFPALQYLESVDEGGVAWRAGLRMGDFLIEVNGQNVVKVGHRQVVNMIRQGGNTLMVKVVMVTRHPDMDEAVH

RHPN1, Q8TCX5 = biological target: T3, RHPN1, Q8TCX5
T3 sequence (Q8TCX5 508-602, limits assumed, looked up): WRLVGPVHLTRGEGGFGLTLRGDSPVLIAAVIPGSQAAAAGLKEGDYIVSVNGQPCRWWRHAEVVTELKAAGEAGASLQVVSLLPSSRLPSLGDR

NHERF3_1, Q5T2W1 = biological target: T4, NHERF3_1, Q5T2W1
T4 sequence (Q5T2W1 4-100, limits assumed, looked up): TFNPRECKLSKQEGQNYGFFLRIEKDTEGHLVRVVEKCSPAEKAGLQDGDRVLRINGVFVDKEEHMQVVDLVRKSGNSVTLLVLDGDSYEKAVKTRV

MAST1, Q9Y2H9 = biological target: MAST1, Q9Y2H9
SNTG1, Q9NSN8 = biological target: T5, SNTG1, Q9NSN8
T5 sequence (Q9NSN8 52-150, limits assumed, looked up): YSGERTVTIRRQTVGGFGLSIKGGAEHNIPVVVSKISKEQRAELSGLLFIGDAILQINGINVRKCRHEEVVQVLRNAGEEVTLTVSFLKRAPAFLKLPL

NHERF2_2, Q15599 = biological target: NHERF2_2, Q15599
LNX1_1, Q8TBB1 = biological target: LNX1_1, Q8TBB1
MAGI2_3, Q86UL8 = biological target: MAGI2_3, Q86UL8
LIN7C, Q9NUP9 = biological target: T6, LIN7C, Q9NUP9
T6 sequence (Q9NUP9 88-185, limits assumed, looked up): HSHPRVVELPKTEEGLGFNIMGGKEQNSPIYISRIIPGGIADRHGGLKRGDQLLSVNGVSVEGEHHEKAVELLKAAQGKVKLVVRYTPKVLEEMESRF

DLG4_1, P78352 = biological target: DLG4_1, P78352
PTPN3, P26045 = biological target: PTPN3, P26045
NHERF4_2, Q86UT5 = biological target: NHERF4_2, Q86UT5
MPP2, Q14168 = biological target: T7, MPP2, Q14168
T7 sequence (Q14168 180-250, limits assumed, looked up): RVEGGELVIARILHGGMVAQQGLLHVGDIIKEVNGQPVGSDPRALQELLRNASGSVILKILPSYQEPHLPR

SYNJ2BP, P57105 = biological target: T8, SYNJ2BP, P57105
T8 sequence (P57105 8-110, limits assumed, looked up): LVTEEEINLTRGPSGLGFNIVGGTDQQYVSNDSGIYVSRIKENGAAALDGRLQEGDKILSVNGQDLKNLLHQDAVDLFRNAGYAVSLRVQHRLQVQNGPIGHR

GORASP1, Q9BQQ3 = biological target: GORASP1, Q9BQQ3
LNX2_2, Q8N448 = biological target: T9, LNX2_2, Q8N448
T9 sequence (Q8N448 334-432, limits assumed, looked up): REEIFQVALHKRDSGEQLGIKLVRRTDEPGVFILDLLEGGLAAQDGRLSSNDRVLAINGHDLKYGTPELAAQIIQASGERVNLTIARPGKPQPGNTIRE

GORASP2, Q9H8Y8 = biological target: GORASP2, Q9H8Y8
FRMPD3, Q5JV73 = biological target: FRMPD3, Q5JV73
NHERF3_4, Q5T2W1 = biological target: T10, NHERF3_4, Q5T2W1
T10 sequence (Q5T2W1 373-468, limits assumed, looked up): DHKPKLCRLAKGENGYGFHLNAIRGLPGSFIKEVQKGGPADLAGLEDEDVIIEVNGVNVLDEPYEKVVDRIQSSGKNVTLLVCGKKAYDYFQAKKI

SCRIB_1, Q14160 = biological target: SCRIB_1, Q14160
DLG3_2, Q92796 = biological target: T11, DLG3_2, Q92796
T11 sequence (Q92796 221-321, limits assumed, looked up): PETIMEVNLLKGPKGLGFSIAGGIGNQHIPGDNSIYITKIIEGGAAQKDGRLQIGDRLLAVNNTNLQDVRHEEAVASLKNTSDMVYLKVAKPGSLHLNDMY

DLG4_2, P78352 = biological target: DLG4_2, P78352
[1] = plain residues with an end cap or a label only (N-terminal biotin on a linker: ttds)
[2] = plain residues with an end cap or a label only (N-terminal biotin on a linker: ahx)

Sequence of SCRIB_1, Q14160 (Q14160 718-814): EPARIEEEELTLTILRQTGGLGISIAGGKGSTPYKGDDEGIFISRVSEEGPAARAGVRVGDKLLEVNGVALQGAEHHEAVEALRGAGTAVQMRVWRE
Sequence of DLG4_1, P78352 (P78352 62-152): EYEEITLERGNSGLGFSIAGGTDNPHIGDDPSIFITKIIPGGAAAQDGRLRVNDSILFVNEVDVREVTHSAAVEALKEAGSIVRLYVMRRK
Sequence of Inadl_8, Q8NI35 (Q8NI35 1425-1530): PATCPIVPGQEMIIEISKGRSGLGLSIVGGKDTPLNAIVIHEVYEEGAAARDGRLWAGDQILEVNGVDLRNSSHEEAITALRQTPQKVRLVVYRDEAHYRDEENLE
Sequence of MAST1, Q9Y2H9 (Q9Y2H9 962-1065): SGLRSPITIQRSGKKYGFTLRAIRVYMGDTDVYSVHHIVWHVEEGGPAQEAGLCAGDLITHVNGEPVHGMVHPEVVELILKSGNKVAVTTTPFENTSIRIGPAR
Sequence of NHERF4_2, Q86UT5 (Q86UT5 220-308): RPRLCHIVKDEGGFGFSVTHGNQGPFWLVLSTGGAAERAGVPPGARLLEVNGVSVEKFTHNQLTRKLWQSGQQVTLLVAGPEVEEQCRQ
Sequence of LNX1_1, Q8TBB1 (Q8TBB1 261-371): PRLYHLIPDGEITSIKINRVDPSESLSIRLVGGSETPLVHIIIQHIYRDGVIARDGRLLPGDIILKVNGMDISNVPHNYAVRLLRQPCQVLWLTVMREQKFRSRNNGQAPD
Sequence of DLG4_2, P78352 (P78352 155-259): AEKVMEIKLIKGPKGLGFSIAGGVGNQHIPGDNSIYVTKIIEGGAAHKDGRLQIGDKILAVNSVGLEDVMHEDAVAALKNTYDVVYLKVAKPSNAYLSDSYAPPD
Sequence of NHERF2_2, Q15599 (Q15599 142-238): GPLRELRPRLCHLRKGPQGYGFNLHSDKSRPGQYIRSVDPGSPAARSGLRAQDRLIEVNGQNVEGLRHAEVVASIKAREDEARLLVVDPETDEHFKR
Sequence of MAGI1_2, Q96QZ7 (Q96QZ7 456-580): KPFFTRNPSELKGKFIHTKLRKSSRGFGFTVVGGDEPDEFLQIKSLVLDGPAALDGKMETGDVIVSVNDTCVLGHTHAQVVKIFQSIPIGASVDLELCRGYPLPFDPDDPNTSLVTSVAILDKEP
Sequence of PDZRN4_1, Q6ZMN7 (Q6ZMN7 213-318): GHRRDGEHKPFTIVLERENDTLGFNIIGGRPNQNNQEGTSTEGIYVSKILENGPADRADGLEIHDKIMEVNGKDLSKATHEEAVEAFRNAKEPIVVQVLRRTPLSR
Sequence of GORASP1, Q9BQQ3 (Q9BQQ3 1-208): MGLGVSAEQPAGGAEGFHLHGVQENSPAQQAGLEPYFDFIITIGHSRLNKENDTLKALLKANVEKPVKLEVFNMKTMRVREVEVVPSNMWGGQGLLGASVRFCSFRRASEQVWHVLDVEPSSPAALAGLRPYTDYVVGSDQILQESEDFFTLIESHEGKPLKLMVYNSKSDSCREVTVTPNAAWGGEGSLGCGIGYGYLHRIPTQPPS
Sequence of MAGI2_3, Q86UL8 (Q86UL8 600-682): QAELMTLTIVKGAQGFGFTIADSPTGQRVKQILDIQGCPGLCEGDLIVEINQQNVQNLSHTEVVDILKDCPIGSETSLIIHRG
Sequence of PTPN3, P26045 (P26045 505-587): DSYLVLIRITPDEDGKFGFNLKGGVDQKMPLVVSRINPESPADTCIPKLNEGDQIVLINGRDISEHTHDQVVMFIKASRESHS
Sequence of TJP1_2, Q07157 (Q07157 181-274): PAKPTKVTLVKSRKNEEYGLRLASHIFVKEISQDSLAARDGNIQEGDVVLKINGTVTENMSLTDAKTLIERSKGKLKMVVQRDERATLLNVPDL
Sequence of FRMPD3, Q5JV73 (Q5JV73 12-100): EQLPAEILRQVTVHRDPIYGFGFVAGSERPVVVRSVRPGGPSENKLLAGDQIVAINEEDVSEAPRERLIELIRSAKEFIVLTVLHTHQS

pKd (Inadl_8, Q8NI35; [1]): below the threshold
pKd (DFNB31_3, Q9P202; [1]): below the threshold
pKd (PDZRN4_1, Q6ZMN7; [1]): 4.64
pKd (TJP1_2, Q07157; [1]): below the threshold
pKd (MAGI1_2, Q96QZ7; [1]): below the threshold
pKd (SHANK1, Q9Y566; [1]): 4.42
pKd (RHPN1, Q8TCX5; [1]): 3.85
pKd (NHERF3_1, Q5T2W1; [1]): 5.42
pKd (MAST1, Q9Y2H9; [1]): 4.85
pKd (SNTG1, Q9NSN8; [1]): 4.1
pKd (NHERF2_2, Q15599; [1]): 4.66
pKd (LNX1_1, Q8TBB1; [1]): below the threshold
pKd (MAGI2_3, Q86UL8; [1]): 3.52
pKd (LIN7C, Q9NUP9; [1]): below the threshold
pKd (DLG4_1, P78352; [1]): below the threshold
pKd (PTPN3, P26045; [1]): 5.02
pKd (NHERF4_2, Q86UT5; [1]): below the threshold
pKd (MPP2, Q14168; [1]): below the threshold
pKd (SYNJ2BP, P57105; [1]): 4.42
pKd (GORASP1, Q9BQQ3; [1]): below the threshold
pKd (LNX2_2, Q8N448; [1]): below the threshold
pKd (GORASP2, Q9H8Y8; [1]): below the threshold
pKd (FRMPD3, Q5JV73; [1]): 3.53
pKd (NHERF3_4, Q5T2W1; [1]): 3.52
pKd (SCRIB_1, Q14160; [1]): 4.64
pKd (DLG3_2, Q92796; [1]): below the threshold
pKd (DLG4_2, P78352; [1]): 3.78
Binder: DKDPHSETAL [TMIGD1, Q6UXZ0]

pKd (Inadl_8, Q8NI35; [1]): below the threshold
pKd (DFNB31_3, Q9P202; [1]): below the threshold
pKd (PDZRN4_1, Q6ZMN7; [1]): 4.8
pKd (TJP1_2, Q07157; [1]): below the threshold
pKd (MAGI1_2, Q96QZ7; [1]): 3.69
pKd (SHANK1, Q9Y566; [1]): 4.67
pKd (RHPN1, Q8TCX5; [1]): 4.28
pKd (NHERF3_1, Q5T2W1; [1]): 5.38
pKd (MAST1, Q9Y2H9; [1]): 5.32
pKd (SNTG1, Q9NSN8; [1]): 3.82
pKd (NHERF2_2, Q15599; [1]): 4.62
pKd (LNX1_1, Q8TBB1; [1]): below the threshold
pKd (MAGI2_3, Q86UL8; [1]): below the threshold
pKd (LIN7C, Q9NUP9; [1]): 3.81
pKd (DLG4_1, P78352; [1]): 3.73
pKd (PTPN3, P26045; [1]): 5.04
pKd (NHERF4_2, Q86UT5; [1]): below the threshold
pKd (MPP2, Q14168; [1]): below the threshold
pKd (SYNJ2BP, P57105; [1]): 4.28
pKd (GORASP1, Q9BQQ3; [1]): below the threshold
pKd (LNX2_2, Q8N448; [1]): below the threshold
pKd (GORASP2, Q9H8Y8; [1]): below the threshold
pKd (FRMPD3, Q5JV73; [1]): 3.58
pKd (NHERF3_4, Q5T2W1; [1]): below the threshold
pKd (SCRIB_1, Q14160; [1]): 5.54
pKd (DLG3_2, Q92796; [1]): 3.91
pKd (DLG4_2, P78352; [1]): below the threshold
Binder: KKYVDAETSL [SLC4A7, Q9Y6M7]

pKd (Inadl_8, Q8NI35; [2]): 3.57
pKd (DFNB31_3, Q9P202; [2]): below the threshold
pKd (PDZRN4_1, Q6ZMN7; [2]): below the threshold
pKd (TJP1_2, Q07157; [2]): below the threshold
pKd (MAGI1_2, Q96QZ7; [2]): below the threshold
pKd (SHANK1, Q9Y566; [2]): 3.53
pKd (RHPN1, Q8TCX5; [2]): below the threshold
pKd (NHERF3_1, Q5T2W1; [2]): below the threshold
pKd (MAST1, Q9Y2H9; [2]): below the threshold
pKd (SNTG1, Q9NSN8; [2]): below the threshold
pKd (NHERF2_2, Q15599; [2]): below the threshold
pKd (LNX1_1, Q8TBB1; [2]): below the threshold
pKd (MAGI2_3, Q86UL8; [2]): below the threshold
pKd (LIN7C, Q9NUP9; [2]): below the threshold
pKd (DLG4_1, P78352; [2]): below the threshold
pKd (PTPN3, P26045; [2]): below the threshold
pKd (NHERF4_2, Q86UT5; [2]): below the threshold
pKd (MPP2, Q14168; [2]): below the threshold
pKd (SYNJ2BP, P57105; [2]): below the threshold
pKd (GORASP1, Q9BQQ3; [2]): below the threshold
pKd (LNX2_2, Q8N448; [2]): below the threshold
pKd (GORASP2, Q9H8Y8; [2]): below the threshold
pKd (FRMPD3, Q5JV73; [2]): below the threshold
pKd (NHERF3_4, Q5T2W1; [2]): below the threshold
pKd (SCRIB_1, Q14160; [2]): below the threshold
pKd (DLG3_2, Q92796; [2]): below the threshold
pKd (DLG4_2, P78352; [2]): below the threshold
Binder: ESLLLGPSNF [SHROOM4, Q9ULL8]
